We go through 3 molecules from PMC9492657, “Metabolic pathway assembly using docking domains from type I cis-AT polyketide synthases” (Nature Communications, 2022).

Broadly, the Kd is the concentration at which binding is half-saturated. A lower Kd goes with a tighter complex.

The target in assay [1] is D5 NDD-His-tag, biotinylated (N-terminal docking domain of DEBS3, 6-deoxyerythronolide B synthase) (UniProt Q03133). Nature of the assay: BLI; Octet RED96E; biotinylated D5 NDD (100 ug/mL in PBS) immobilised on a streptavidin (SA) biosensor; CDD in solution at variable concentrations in 1x kinetic buffer (PBS pH 7.4, 0.1% BSA, 0.05% Tween 20); 1:1 global model; three repeats. On the technique in general: Biolayer interferometry detects binding as a change in optical thickness at a sensor tip.

Assay [2] concerns the target D3 NDD-His-tag (N-terminal docking domain of DEBS2, 6-deoxyerythronolide B synthase) (UniProt Q03132). Nature of the assay: BLI; GatorPrime; NDD-His-tag (100 ug/mL in PBS) immobilised on a Ni-NTA biosensor; CDD in solution at variable concentrations in 1x kinetic buffer (PBS pH 7.4, 0.1% BSA, 0.05% Tween 20); 1:1 global model; three repeats.
Assay [3] concerns the target T1, R5 NDD-His-tag (N-terminal docking domain of RapB, rapamycin polyketide synthase) (Streptomyces rapamycinicus).
T1 chain: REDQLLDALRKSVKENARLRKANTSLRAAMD
The assay is described as above. The note with it: both partners purified.

Molecule “Flag-tag-D4 CDD (C-terminal docking domain of DEBS2, 6-deoxyerythronolide B synthase) (from UniProt Q03132 1-3567) (domain or fragment)” had a Kd in assay [1] of 280 nM.
“Flag-tag-D2 CDD (C-terminal docking domain of DEBS1, 6-deoxyerythronolide B synthase) (from UniProt Q03131 1-3491) (domain or fragment)” registered a Kd in assay [2] of 14600 nM. In other words, the double-digit micromolar range.

B1: Flag-tag-R4 CDD (C-terminal docking domain of RapA, rapamycin polyketide synthase) (domain or fragment)
chain: FAPAEPEPRLHEQELRRALAGISIDKFREAGVLDTLLRLAAMEGLAVPKPDSESDDEAFVDEMDADALIKHVLEEER
On to B1, for which the Kd in assay [3] stood at 340 ± 30 nM.
